Test results taken from IntAct's records for PubMed 21240272.

B1: F-box-like/WD repeat-containing protein TBL1X (Homo sapiens), O60907-2 (parent)
chain: MSITSDEVNFLVYRYLQESGFSHSAFTFGIESHISQSNINGTLVPPAALISILQKGLQYVEAEISINEDGTVFDGRPIESLSLIDAVMPDVVQTRQQAFREKLAQQQASAAAAAAAATAAATAATTTSAGVSHQNPSKNREATVNGEENRAHSVNNHAKPMEIDGEVEIPSSKATVLRGHESEVFICAWNPVSDLLASGSGDSTARIWNLNENSNGGSTQLVLRHCIREGGHDVPSNKDVTSLDWNTNGTLLATGSYDGFARIWTEDGNLASTLGQHKGPIFALKWNRKGNYILSAGVDKTTIIWDAHTGEAKQQFPFHSAPALDVDWQNNTTFASCSTDMCIHVCRLGCDRPVKTFQGHTNEVNAIKWDPSGMLLASCSDDMTLKIWSMKQEVCIHDLQAHNKEIYTIKWSPTGPATSNPNSNIMLASASFDSTVRLWDIERGVCTHTLTKHQEPVYSVAFSPDGKYLASGSFDKCVHIWNTQSGNLVHSYRGTGGIFEVCWNARGDKVGASASDGSVCVLDLRK
B2: G protein pathway suppressor 2 (Homo sapiens), Q13227 (parent)
chain: MPALLERPKLSNAMARALHRHIMMERERKRQEEEEVDKMMEQKMKEEQERRKKKEMEERMSLEETKEQILKLEEKLLALQEEKHQLFLQLKKVLHEEEKRRRKEQSDLTTLTSAAYQQSLTVHTGTHLLSMQGSPGGHNRPGTLMAADRAKQMFGPQVLTTRHYVGSAAAFAGTPEHGQFQGSPGGAYGTAQPPPHYGPTQPAYSPSQQLRAPSAFPAVQYLSQPQPQPYAVHGHFQPTQTGFLQPGGALSLQKQMEHANQQTGFSDSSSLRPMHPQALHPAPGLLASPQLPVQMQPAGKSGFAATSQPGPRLPFIQHSQNPRFYHK
partner: B1 chain

Variants of: B1
Conditions: with ncor2_human NCOR2, Q9Y618
ncor2_human NCOR2, Q9Y618, sequence (Q9Y618 whole entry): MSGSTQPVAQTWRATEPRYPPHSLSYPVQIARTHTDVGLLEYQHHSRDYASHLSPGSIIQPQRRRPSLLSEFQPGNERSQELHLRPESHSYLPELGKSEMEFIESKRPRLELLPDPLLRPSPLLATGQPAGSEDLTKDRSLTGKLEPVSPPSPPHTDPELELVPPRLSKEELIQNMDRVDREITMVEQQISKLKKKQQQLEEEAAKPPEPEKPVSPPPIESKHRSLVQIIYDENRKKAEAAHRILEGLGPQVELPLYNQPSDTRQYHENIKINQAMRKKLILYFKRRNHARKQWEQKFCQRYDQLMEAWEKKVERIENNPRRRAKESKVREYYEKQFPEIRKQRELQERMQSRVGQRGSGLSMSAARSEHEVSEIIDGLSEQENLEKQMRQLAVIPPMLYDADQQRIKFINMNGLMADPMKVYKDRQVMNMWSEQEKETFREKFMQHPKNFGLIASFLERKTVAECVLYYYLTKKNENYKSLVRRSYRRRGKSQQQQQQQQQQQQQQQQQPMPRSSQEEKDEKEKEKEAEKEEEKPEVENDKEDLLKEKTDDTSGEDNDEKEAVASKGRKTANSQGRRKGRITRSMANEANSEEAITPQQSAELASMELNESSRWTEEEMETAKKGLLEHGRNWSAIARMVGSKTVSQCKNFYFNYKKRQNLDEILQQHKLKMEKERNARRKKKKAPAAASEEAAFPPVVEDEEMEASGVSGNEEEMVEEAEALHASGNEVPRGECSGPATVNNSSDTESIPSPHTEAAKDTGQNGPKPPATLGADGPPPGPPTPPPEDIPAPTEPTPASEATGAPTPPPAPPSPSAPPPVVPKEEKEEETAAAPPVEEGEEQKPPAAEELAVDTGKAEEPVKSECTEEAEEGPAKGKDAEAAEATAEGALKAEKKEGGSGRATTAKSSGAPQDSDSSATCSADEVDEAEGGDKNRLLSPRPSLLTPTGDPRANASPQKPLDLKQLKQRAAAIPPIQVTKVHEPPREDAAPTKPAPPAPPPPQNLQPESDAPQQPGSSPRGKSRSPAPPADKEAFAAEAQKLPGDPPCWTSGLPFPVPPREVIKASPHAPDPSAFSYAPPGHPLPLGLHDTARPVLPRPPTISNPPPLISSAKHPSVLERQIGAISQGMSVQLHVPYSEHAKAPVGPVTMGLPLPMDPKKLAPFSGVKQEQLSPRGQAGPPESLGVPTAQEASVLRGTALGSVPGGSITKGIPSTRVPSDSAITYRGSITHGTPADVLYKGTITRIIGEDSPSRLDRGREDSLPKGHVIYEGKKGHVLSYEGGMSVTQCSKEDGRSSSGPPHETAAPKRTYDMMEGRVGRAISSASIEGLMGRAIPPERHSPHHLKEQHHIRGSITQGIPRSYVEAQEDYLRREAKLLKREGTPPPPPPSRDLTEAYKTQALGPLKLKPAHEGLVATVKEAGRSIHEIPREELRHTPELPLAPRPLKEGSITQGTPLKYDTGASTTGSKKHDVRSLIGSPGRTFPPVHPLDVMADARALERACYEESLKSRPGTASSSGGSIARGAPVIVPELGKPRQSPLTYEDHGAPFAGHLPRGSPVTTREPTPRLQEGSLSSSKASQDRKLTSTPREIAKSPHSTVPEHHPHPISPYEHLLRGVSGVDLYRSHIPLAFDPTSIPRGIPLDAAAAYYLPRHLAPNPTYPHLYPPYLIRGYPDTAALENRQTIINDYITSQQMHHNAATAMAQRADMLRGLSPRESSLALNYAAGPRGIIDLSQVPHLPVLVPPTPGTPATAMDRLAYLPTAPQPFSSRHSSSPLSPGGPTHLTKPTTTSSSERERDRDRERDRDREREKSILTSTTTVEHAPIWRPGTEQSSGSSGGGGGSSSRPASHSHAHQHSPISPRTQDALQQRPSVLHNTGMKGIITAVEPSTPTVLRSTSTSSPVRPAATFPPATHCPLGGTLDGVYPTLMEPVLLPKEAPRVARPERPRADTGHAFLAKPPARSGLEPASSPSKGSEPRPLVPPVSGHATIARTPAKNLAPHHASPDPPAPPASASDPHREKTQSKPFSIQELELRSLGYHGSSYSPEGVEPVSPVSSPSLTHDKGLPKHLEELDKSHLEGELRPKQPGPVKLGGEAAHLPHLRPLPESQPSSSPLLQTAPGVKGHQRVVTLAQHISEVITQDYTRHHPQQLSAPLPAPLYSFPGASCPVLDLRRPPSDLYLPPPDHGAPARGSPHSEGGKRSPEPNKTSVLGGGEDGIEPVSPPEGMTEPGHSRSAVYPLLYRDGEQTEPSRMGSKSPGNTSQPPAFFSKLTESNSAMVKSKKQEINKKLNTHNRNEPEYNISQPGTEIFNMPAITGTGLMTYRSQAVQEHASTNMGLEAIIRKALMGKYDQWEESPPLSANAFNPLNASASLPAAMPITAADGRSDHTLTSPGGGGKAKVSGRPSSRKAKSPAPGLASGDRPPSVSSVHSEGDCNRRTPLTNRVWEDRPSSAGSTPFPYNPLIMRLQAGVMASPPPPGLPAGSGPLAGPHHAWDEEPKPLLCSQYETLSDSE

Row | effect of a mutation on the interaction | Variant
1 | decreasing interaction | MSITSDEVNFLVYRYLQESGFSHSAFTFGIESHISQSNINGTLVGPAALISILQKGLQYVEAEISINEDGTVFDGRPIESLSLIDAVMPDVVQTRQQAFREKLAQQQASAAAAAAAATAAATAATTTSAGVSHQNPSKNREATVNGEENRAHSVNNHAKPMEIDGEVEIPSSKATVLRGHESEVFICAWNPVSDLLASGSGDSTARIWNLNENSNGGSTQLVLRHCIREGGHDVPSNKDVTSLDWNTNGTLLATGSYDGFARIWTEDGNLASTLGQHKGPIFALKWNRKGNYILSAGVDKTTIIWDAHTGEAKQQFPFHSAPALDVDWQNNTTFASCSTDMCIHVCRLGCDRPVKTFQGHTNEVNAIKWDPSGMLLASCSDDMTLKIWSMKQEVCIHDLQAHNKEIYTIKWSPTGPATSNPNSNIMLASASFDSTVRLWDIERGVCTHTLTKHQEPVYSVAFSPDGKYLASGSFDKCVHIWNTQSGNLVHSYRGTGGIFEVCWNARGDKVGASASDGSVCVLDLRK [P45G]
2 | disrupting interaction | MSITSDEVNFLVYRYLQESGFSHSAFTFGIESHISQSNINGTLVPPAALISILQKGLQYNEAEISINEDGTVFDGRPIESLSLIDAVMPDVVQTRQQAFREKLAQQQASAAAAAAAATAAATAATTTSAGVSHQNPSKNREATVNGEENRAHSVNNHAKPMEIDGEVEIPSSKATVLRGHESEVFICAWNPVSDLLASGSGDSTARIWNLNENSNGGSTQLVLRHCIREGGHDVPSNKDVTSLDWNTNGTLLATGSYDGFARIWTEDGNLASTLGQHKGPIFALKWNRKGNYILSAGVDKTTIIWDAHTGEAKQQFPFHSAPALDVDWQNNTTFASCSTDMCIHVCRLGCDRPVKTFQGHTNEVNAIKWDPSGMLLASCSDDMTLKIWSMKQEVCIHDLQAHNKEIYTIKWSPTGPATSNPNSNIMLASASFDSTVRLWDIERGVCTHTLTKHQEPVYSVAFSPDGKYLASGSFDKCVHIWNTQSGNLVHSYRGTGGIFEVCWNARGDKVGASASDGSVCVLDLRK [V60N]
3 | decreasing interaction | MSITSDEVNFLVYRYLQESGFSHSAFTFGIESHISQSNANGTLVPPAALISILQKGLQYVEAEISINEDGTVFDGRPIESLSLIDAVMPDVVQTRQQAFREKLAQQQASAAAAAAAATAAATAATTTSAGVSHQNPSKNREATVNGEENRAHSVNNHAKPMEIDGEVEIPSSKATVLRGHESEVFICAWNPVSDLLASGSGDSTARIWNLNENSNGGSTQLVLRHCIREGGHDVPSNKDVTSLDWNTNGTLLATGSYDGFARIWTEDGNLASTLGQHKGPIFALKWNRKGNYILSAGVDKTTIIWDAHTGEAKQQFPFHSAPALDVDWQNNTTFASCSTDMCIHVCRLGCDRPVKTFQGHTNEVNAIKWDPSGMLLASCSDDMTLKIWSMKQEVCIHDLQAHNKEIYTIKWSPTGPATSNPNSNIMLASASFDSTVRLWDIERGVCTHTLTKHQEPVYSVAFSPDGKYLASGSFDKCVHIWNTQSGNLVHSYRGTGGIFEVCWNARGDKVGASASDGSVCVLDLRK [I39A]
4 | decreasing interaction strength | MSITSDEVNFLVYRYLQESGFSHSAFTFGIESHISQSNINGTLVPPAALISILQKGAQYVEAEISINEDGTVFDGRPIESLSLIDAVMPDVVQTRQQAFREKLAQQQASAAAAAAAATAAATAATTTSAGVSHQNPSKNREATVNGEENRAHSVNNHAKPMEIDGEVEIPSSKATVLRGHESEVFICAWNPVSDLLASGSGDSTARIWNLNENSNGGSTQLVLRHCIREGGHDVPSNKDVTSLDWNTNGTLLATGSYDGFARIWTEDGNLASTLGQHKGPIFALKWNRKGNYILSAGVDKTTIIWDAHTGEAKQQFPFHSAPALDVDWQNNTTFASCSTDMCIHVCRLGCDRPVKTFQGHTNEVNAIKWDPSGMLLASCSDDMTLKIWSMKQEVCIHDLQAHNKEIYTIKWSPTGPATSNPNSNIMLASASFDSTVRLWDIERGVCTHTLTKHQEPVYSVAFSPDGKYLASGSFDKCVHIWNTQSGNLVHSYRGTGGIFEVCWNARGDKVGASASDGSVCVLDLRK [L57A]
5 | decreasing interaction strength | MSITSDEVNFLVYRYLQESGFSHSAFTFGIESHISQSNINGTLVPPAALISILQKGQQYVEAEISINEDGTVFDGRPIESLSLIDAVMPDVVQTRQQAFREKLAQQQASAAAAAAAATAAATAATTTSAGVSHQNPSKNREATVNGEENRAHSVNNHAKPMEIDGEVEIPSSKATVLRGHESEVFICAWNPVSDLLASGSGDSTARIWNLNENSNGGSTQLVLRHCIREGGHDVPSNKDVTSLDWNTNGTLLATGSYDGFARIWTEDGNLASTLGQHKGPIFALKWNRKGNYILSAGVDKTTIIWDAHTGEAKQQFPFHSAPALDVDWQNNTTFASCSTDMCIHVCRLGCDRPVKTFQGHTNEVNAIKWDPSGMLLASCSDDMTLKIWSMKQEVCIHDLQAHNKEIYTIKWSPTGPATSNPNSNIMLASASFDSTVRLWDIERGVCTHTLTKHQEPVYSVAFSPDGKYLASGSFDKCVHIWNTQSGNLVHSYRGTGGIFEVCWNARGDKVGASASDGSVCVLDLRK [L57Q]

Variants of: B1
Conditions: with gps2_human GPS2, Q13227

Row | effect of a mutation on the interaction | Variant
6 | disrupting interaction | MSITSDEVNFLVYRYLQESGFSHSAFTFGIESHISQSNINGTLVPPAALISILQKGLQYNEAEISINEDGTVFDGRPIESLSLIDAVMPDVVQTRQQAFREKLAQQQASAAAAAAAATAAATAATTTSAGVSHQNPSKNREATVNGEENRAHSVNNHAKPMEIDGEVEIPSSKATVLRGHESEVFICAWNPVSDLLASGSGDSTARIWNLNENSNGGSTQLVLRHCIREGGHDVPSNKDVTSLDWNTNGTLLATGSYDGFARIWTEDGNLASTLGQHKGPIFALKWNRKGNYILSAGVDKTTIIWDAHTGEAKQQFPFHSAPALDVDWQNNTTFASCSTDMCIHVCRLGCDRPVKTFQGHTNEVNAIKWDPSGMLLASCSDDMTLKIWSMKQEVCIHDLQAHNKEIYTIKWSPTGPATSNPNSNIMLASASFDSTVRLWDIERGVCTHTLTKHQEPVYSVAFSPDGKYLASGSFDKCVHIWNTQSGNLVHSYRGTGGIFEVCWNARGDKVGASASDGSVCVLDLRK [V60N]
7 | decreasing interaction strength | MSITSDEVNFLVYRYLQESGFSHSAFTFGIESHISQSNINGTLVPPAALISILQKGAQYVEAEISINEDGTVFDGRPIESLSLIDAVMPDVVQTRQQAFREKLAQQQASAAAAAAAATAAATAATTTSAGVSHQNPSKNREATVNGEENRAHSVNNHAKPMEIDGEVEIPSSKATVLRGHESEVFICAWNPVSDLLASGSGDSTARIWNLNENSNGGSTQLVLRHCIREGGHDVPSNKDVTSLDWNTNGTLLATGSYDGFARIWTEDGNLASTLGQHKGPIFALKWNRKGNYILSAGVDKTTIIWDAHTGEAKQQFPFHSAPALDVDWQNNTTFASCSTDMCIHVCRLGCDRPVKTFQGHTNEVNAIKWDPSGMLLASCSDDMTLKIWSMKQEVCIHDLQAHNKEIYTIKWSPTGPATSNPNSNIMLASASFDSTVRLWDIERGVCTHTLTKHQEPVYSVAFSPDGKYLASGSFDKCVHIWNTQSGNLVHSYRGTGGIFEVCWNARGDKVGASASDGSVCVLDLRK [L57A]
8 | decreasing interaction strength | MSITSDEVNFLVYRYLQESGFSHSAFTFGIESHISQSNINGTLVPPAALISILQKGQQYVEAEISINEDGTVFDGRPIESLSLIDAVMPDVVQTRQQAFREKLAQQQASAAAAAAAATAAATAATTTSAGVSHQNPSKNREATVNGEENRAHSVNNHAKPMEIDGEVEIPSSKATVLRGHESEVFICAWNPVSDLLASGSGDSTARIWNLNENSNGGSTQLVLRHCIREGGHDVPSNKDVTSLDWNTNGTLLATGSYDGFARIWTEDGNLASTLGQHKGPIFALKWNRKGNYILSAGVDKTTIIWDAHTGEAKQQFPFHSAPALDVDWQNNTTFASCSTDMCIHVCRLGCDRPVKTFQGHTNEVNAIKWDPSGMLLASCSDDMTLKIWSMKQEVCIHDLQAHNKEIYTIKWSPTGPATSNPNSNIMLASASFDSTVRLWDIERGVCTHTLTKHQEPVYSVAFSPDGKYLASGSFDKCVHIWNTQSGNLVHSYRGTGGIFEVCWNARGDKVGASASDGSVCVLDLRK [L57Q]

Variants of: B2
Conditions: with TBL1X

Row | effect of a mutation on the interaction | Variant
9 | disrupting interaction | MPALLERPKLSNAMARALAEHAMMERERKRQEEEEVDKMMEQKMKEEQERRKKKEMEERMSLEETKEQILKLEEKLLALQEEKHQLFLQLKKVLHEEEKRRRKEQSDLTTLTSAAYQQSLTVHTGTHLLSMQGSPGGHNRPGTLMAADRAKQMFGPQVLTTRHYVGSAAAFAGTPEHGQFQGSPGGAYGTAQPPPHYGPTQPAYSPSQQLRAPSAFPAVQYLSQPQPQPYAVHGHFQPTQTGFLQPGGALSLQKQMEHANQQTGFSDSSSLRPMHPQALHPAPGLLASPQLPVQMQPAGKSGFAATSQPGPRLPFIQHSQNPRFYHK [H19A;R20E;I22A]
